In article PMC10397247:

Columns and labels:
4H4038-bN = molecular target: T1, 4H4038-bN; assay: two-hybrid library CCNG1;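 note: natural log of median RNA to DNA barcode read ratio; higher means stronger binding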
T1 chain: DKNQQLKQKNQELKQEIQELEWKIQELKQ

4H3592-bN = molecular target: T2, 4H3592-bN; assay: two-hybrid library CCNG1;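 note: natural log of median RNA to DNA barcode read ratio; higher means stronger binding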
T2 chain: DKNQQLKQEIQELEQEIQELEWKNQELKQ

4H1387-bN = molecular target: T3, 4H1387-bN; assay: two-hybrid library CCNG1;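 note: natural log of median RNA to DNA barcode read ratio; higher means stronger binding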
T3 chain: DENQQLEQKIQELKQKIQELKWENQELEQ

4H1406-bN = molecular target: T4, 4H1406-bN; assay: two-hybrid library CCNG1;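 note: natural log of median RNA to DNA barcode read ratio; higher means stronger binding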
T4 chain: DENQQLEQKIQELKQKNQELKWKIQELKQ

4H3907-bN = molecular target: T5, 4H3907-bN; assay: two-hybrid library CCNG1;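 note: natural log of median RNA to DNA barcode read ratio; higher means stronger binding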
T5 chain: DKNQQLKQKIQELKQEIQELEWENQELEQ

4H3601-bN = molecular target: T6, 4H3601-bN; assay: two-hybrid library CCNG1;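 note: natural log of median RNA to DNA barcode read ratio; higher means stronger binding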
T6 chain: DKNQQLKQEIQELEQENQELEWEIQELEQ

4H454-bN = molecular target: T7, 4H454-bN; assay: two-hybrid library CCNG1
T7 chain: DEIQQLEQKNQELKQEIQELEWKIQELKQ

4H2162-bN = molecular target: T8, 4H2162-bN; assay: two-hybrid library CCNG1
T8 chain: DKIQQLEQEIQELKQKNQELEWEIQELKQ

4H1738-AA = molecular target: T9, 4H1738-AA; assay: two-hybrid library CCmax
T9 chain: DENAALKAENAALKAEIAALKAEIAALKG

4H688-AA = molecular target: T10, 4H688-AA; assay: two-hybrid library CCmax; conditions: mean of both orientations
T10 chain: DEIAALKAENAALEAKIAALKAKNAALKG

4H347-AA = molecular target: T11, 4H347-AA; assay: two-hybrid library CCmax; conditions: mean of both orientations
T11 chain: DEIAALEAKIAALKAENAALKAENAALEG

4H406-AA = molecular target: T12, 4H406-AA; assay: two-hybrid library CCmax; conditions: mean of both orientations
T12 chain: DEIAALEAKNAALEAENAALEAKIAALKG

4H2774-AA = molecular target: T13, 4H2774-AA; assay: two-hybrid library CCmax; conditions: mean of both orientations
T13 chain: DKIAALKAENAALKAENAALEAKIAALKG

4H963-AA = molecular target: T14, 4H963-AA; assay: two-hybrid library CCmax; conditions: mean of both orientations
T14 chain: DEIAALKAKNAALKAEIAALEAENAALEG

4H3381-AA = molecular target: T15, 4H3381-AA; assay: two-hybrid library CCmax; conditions: mean of both orientations
T15 chain: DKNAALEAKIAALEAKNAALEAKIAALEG

4H2219-AA = molecular target: T16, 4H2219-AA; assay: two-hybrid library CCmax; conditions: mean of both orientations
T16 chain: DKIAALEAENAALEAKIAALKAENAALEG

4H2611-AA = molecular target: T17, 4H2611-AA; assay: two-hybrid library CCmax; conditions: mean of both orientations
T17 chain: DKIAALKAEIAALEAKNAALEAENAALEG

4H3493-AA = molecular target: T18, 4H3493-AA; assay: two-hybrid library CCmax; conditions: mean of both orientations
T18 chain: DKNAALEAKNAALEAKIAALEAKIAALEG

4H2504-AA = molecular target: T19, 4H2504-AA; assay: two-hybrid library CCmax
T19 chain: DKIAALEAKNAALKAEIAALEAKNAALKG

4H3340-AA = molecular target: T20, 4H3340-AA; assay: two-hybrid library CCmax; conditions: mean of both orientations
T20 chain: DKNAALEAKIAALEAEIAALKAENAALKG

4H3001-AA = molecular target: T21, 4H3001-AA; assay: two-hybrid library CCmax; conditions: mean of both orientations
T21 chain: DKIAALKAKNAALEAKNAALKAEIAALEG

4H249-AA = molecular target: T22, 4H249-AA; assay: two-hybrid library CCmax; conditions: mean of both orientations
T22 chain: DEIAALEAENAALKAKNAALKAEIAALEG

4H376-AA = molecular target: T23, 4H376-AA; assay: two-hybrid library CCmax; conditions: mean of both orientations
T23 chain: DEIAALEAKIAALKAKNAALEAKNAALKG

4H2592-AA = molecular target: T24, 4H2592-AA; assay: two-hybrid library CCmax; conditions: mean of both orientations
T24 chain: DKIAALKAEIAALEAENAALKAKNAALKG

4H883-bH = molecular target: T25, 4H883-bH; assay: two-hybrid library CCNG1
T25 chain: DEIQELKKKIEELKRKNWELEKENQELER

4H918-bH = molecular target: T26, 4H918-bH; assay: two-hybrid library CCNG1
T26 chain: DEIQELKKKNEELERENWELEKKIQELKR

4H687-bH = molecular target: T27, 4H687-bH; assay: two-hybrid library CCNG1
T27 chain: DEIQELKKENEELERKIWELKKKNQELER

4H797-bH = molecular target: T28, 4H797-bH; assay: two-hybrid library CCNG1
T28 chain: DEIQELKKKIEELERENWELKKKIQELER

O10-bH = molecular target: T29, O10-bH; assay: two-hybrid library CCNG1
T29 chain: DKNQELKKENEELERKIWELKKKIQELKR

4H72-bH = molecular target: T30, 4H72-bH; assay: two-hybrid library CCNG1
T30 chain: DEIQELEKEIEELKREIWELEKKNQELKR

4H717-bH = molecular target: T31, 4H717-bH; assay: two-hybrid library CCNG1
T31 chain: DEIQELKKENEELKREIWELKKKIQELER

4H967-bH = molecular target: T32, 4H967-bH; assay: two-hybrid library CCNG1
T32 chain: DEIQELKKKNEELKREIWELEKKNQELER

4H953-bH = molecular target: T33, 4H953-bH; assay: two-hybrid library CCNG1
T33 chain: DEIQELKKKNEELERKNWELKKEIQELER

4H754-bH = molecular target: T34, 4H754-bH; assay: two-hybrid library CCNG1
T34 chain: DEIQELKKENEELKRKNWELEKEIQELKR

4H908-bH = molecular target: T35, 4H908-bH; assay: two-hybrid library CCNG1
T35 chain: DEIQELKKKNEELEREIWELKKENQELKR

B1: 4H1387-bN (peptide)
chain: DENQQLEQKIQELKQKIQELKWENQELEQ
With B1 the interaction score (4H4038-bN) was 0.464, the interaction score (4H3592-bN) was 0.94 and the interaction score (4H1387-bN) was -1.9. It also gave an interaction score (4H1406-bN) of -0.625, an interaction score (4H3907-bN) of 1.31 and an interaction score (4H3601-bN) of -0.293. It also gave an interaction score (4H454-bN) of -0.28 and an interaction score (4H2162-bN) of -2.27.

B2: 4H1738-AA (peptide)
chain: DENAALKAENAALKAEIAALKAEIAALKG
For B2, the interaction score (4H1738-AA) was 1.65, the interaction score (4H688-AA) was -1.24 and the interaction score (4H347-AA) was -1.67. The interaction score (4H406-AA) was -1.49, the interaction score (4H2774-AA) was -1.15 and the interaction score (4H963-AA) was -1.8. The interaction score (4H3381-AA) was -1.45, the interaction score (4H2219-AA) was -1.76 and the interaction score (4H2611-AA) was -1.52. The interaction score (4H3493-AA) was -1.11, the interaction score (4H2504-AA) was -1.96 and the interaction score (4H3340-AA) was -1.31. The interaction score (4H3001-AA) was -1.39, the interaction score (4H249-AA) was -1.2 and the interaction score (4H376-AA) was -1.75. It also gave an interaction score (4H2592-AA) of -1.14.

B3: 4H687-bH (peptide)
chain: DEIQELKKENEELERKIWELKKKNQELER
B3 showed an interaction score (4H883-bH) of 0.0397, an interaction score (4H918-bH) of -0.146 and an interaction score (4H687-bH) of 0. For the same binder, the interaction score (4H797-bH) was -0.897, the interaction score (O10-bH) was -0.602 and the interaction score (4H72-bH) was 0.182. It also gave an interaction score (4H717-bH) of -0.0944, an interaction score (4H967-bH) of 1.63 and an interaction score (4H953-bH) of -0.5. The interaction score (4H754-bH) was -0.221 and the interaction score (4H908-bH) was -0.414.
